Laboratory results: article PMC10397247

Experiments:
Assay in all cases: two-hybrid library CCNG1;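 further: natural log of median RNA to DNA barcode read ratio; higher means stronger binding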
[1] = biological target: T1, 4H3364-bN
T1 chain: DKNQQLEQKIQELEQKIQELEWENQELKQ

[2] = biological target: T2, 4H3381-bN
T2 chain: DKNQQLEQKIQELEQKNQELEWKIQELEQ

[3] = biological target: T3, 4H349-bN
T3 chain: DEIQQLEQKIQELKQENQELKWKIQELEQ

[4] = biological target: T4, 4H56-bN
T4 chain: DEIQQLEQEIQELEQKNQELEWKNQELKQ

[5] = biological target: T5, 4H730-bN
T5 chain: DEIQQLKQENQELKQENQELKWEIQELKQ

[6] = biological target: T6, 4H796-bN
T6 chain: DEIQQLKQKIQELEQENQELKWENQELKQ

[7] = biological target: T7, 4H932-bN
T7 chain: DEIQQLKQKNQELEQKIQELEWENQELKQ

[8] = biological target: T8, 4H949-bN
T8 chain: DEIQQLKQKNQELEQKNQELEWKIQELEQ

[9] = biological target: T9, O5-bA
T9 chain: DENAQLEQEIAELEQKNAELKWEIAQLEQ

[10] = biological target: T10, 4H2760-bN
T10 chain: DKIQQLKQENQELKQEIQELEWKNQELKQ

[11] = biological target: T11, 4H2859-bN
T11 chain: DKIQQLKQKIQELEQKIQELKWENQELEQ

[12] = biological target: T12, 4H2931-bN
T12 chain: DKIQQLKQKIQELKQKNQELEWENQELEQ

[13] = biological target: T13, 4H3041-bN
T13 chain: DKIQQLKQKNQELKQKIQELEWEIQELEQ

[14] = biological target: T14, 4H3297-bN
T14 chain: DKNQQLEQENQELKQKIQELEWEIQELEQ

[15] = biological target: T15, 4H331-bH
T15 chain: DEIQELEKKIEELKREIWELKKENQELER

[16] = biological target: T16, 4H3354-bH
T16 chain: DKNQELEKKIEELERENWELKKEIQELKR

[17] = biological target: T17, 4H338-bH
T17 chain: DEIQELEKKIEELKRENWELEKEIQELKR

[18] = biological target: T18, 4H3427-bH
T18 chain: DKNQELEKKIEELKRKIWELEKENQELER

[19] = biological target: T19, 4H3606-bH
T19 chain: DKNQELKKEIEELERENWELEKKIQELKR

[20] = biological target: T20, 4H370-bH
T20 chain: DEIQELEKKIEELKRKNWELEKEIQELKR

[21] = biological target: T21, 4H3782-bH
T21 chain: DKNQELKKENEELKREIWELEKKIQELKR

[22] = biological target: T22, 4H3843-bH
T22 chain: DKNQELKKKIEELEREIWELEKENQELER

[23] = biological target: T23, 4H3855-bH
T23 chain: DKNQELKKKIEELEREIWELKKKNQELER

[24] = biological target: T24, 4H4001-bH
T24 chain: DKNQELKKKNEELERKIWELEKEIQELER

[25] = biological target: T25, 4H454-bH
T25 chain: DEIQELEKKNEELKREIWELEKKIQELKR

[26] = biological target: T26, 4H462-bH
T26 chain: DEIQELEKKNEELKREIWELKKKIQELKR

[27] = biological target: T27, 4H568-bH
T27 chain: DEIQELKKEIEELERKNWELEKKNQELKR

[28] = biological target: T28, 4H607-bH
T28 chain: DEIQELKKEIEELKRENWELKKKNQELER

[29] = biological target: T29, 4H687-bH
T29 chain: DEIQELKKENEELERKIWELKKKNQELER

[30] = biological target: T30, 4H717-bH
T30 chain: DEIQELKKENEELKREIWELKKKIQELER

[31] = biological target: T31, 4H72-bH
T31 chain: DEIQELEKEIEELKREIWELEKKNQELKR

[32] = biological target: T32, 4H754-bH
T32 chain: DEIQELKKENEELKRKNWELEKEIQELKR

[33] = biological target: T33, 4H754-bN
T33 chain: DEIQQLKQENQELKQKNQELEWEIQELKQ

[34] = biological target: T34, 4H797-bH
T34 chain: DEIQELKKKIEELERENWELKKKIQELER

[35] = biological target: T35, 4H883-bH
T35 chain: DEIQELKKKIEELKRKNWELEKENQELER

[36] = biological target: T36, 4H908-bH
T36 chain: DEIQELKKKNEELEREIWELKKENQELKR

[37] = biological target: T37, 4H918-bH
T37 chain: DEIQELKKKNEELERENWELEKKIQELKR

[38] = biological target: T38, 4H953-bH
T38 chain: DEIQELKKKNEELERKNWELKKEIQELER

[39] = biological target: T39, 4H967-bH
T39 chain: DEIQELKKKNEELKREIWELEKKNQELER

B1: 4H3364-bN (peptide)
chain: DKNQQLEQKIQELEQKIQELEWENQELKQ
B1 was tested, and the interaction score [1] was 0.858, the interaction score [2] was -0.731 and the interaction score [3] was -0.763. The interaction score [4] was -0.197, the interaction score [5] was 0.217 and the interaction score [6] was 0.309. It also gave an interaction score [7] of -1.67, an interaction score [8] of -1.23 and an interaction score [9] of -0.987.

B2: 4H2760-bN (peptide)
chain: DKIQQLKQENQELKQEIQELEWKNQELKQ
In the case of B2, the interaction score [10] is reported as -0.578, the interaction score [11] is reported as 1.03 and the interaction score [12] is reported as -0.107. It also gave an interaction score [13] of -0.517, an interaction score [14] of -1.61 and an interaction score [1] of -0.234. The interaction score [2] was 0.638, the interaction score [3] was -1.63 and the interaction score [4] was -0.482. It also gave an interaction score [5] of -0.45, an interaction score [6] of 0.11 and an interaction score [7] of -1.77. For the same binder, the interaction score [8] was 0.472.

B3: 4H331-bH (peptide)
chain: DEIQELEKKIEELKREIWELKKENQELER
In the case of B3, the interaction score [15] is reported as 1.45, the interaction score [16] is reported as -0.721 and the interaction score [17] is reported as 0.213. The interaction score [18] was 1.6, the interaction score [19] was 0.467 and the interaction score [20] was -0.325. It also gave an interaction score [21] of -0.0752, an interaction score [22] of 0.837 and an interaction score [23] of 0.334. The interaction score [24] was 0.891, the interaction score [25] was -0.0612 and the interaction score [26] was 0.445. The interaction score [27] was -1.97, the interaction score [28] was -1.89 and the interaction score [29] was -0.531. It also gave an interaction score [30] of -1.1, an interaction score [31] of 0.733 and an interaction score [32] of -1.42. For the same binder, the interaction score [33] was -1.25, the interaction score [34] was -0.0604 and the interaction score [35] was 0.193. The interaction score [36] was -0.0604, the interaction score [37] was -1.11 and the interaction score [38] was -0.344. It also gave an interaction score [39] of -0.299.
